Where only a bound is given, the exact number is not on record here.

The nature of the data set: soluble fraction after stress (log2 fold change); higher = more stays soluble; pooled small domains, quantitative proteomics. To be noted: stress: pH 4. A digest of the protocol: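 Following acid stress at pH 4, the amount of each small protein domain still soluble was measured in pooled custom libraries by high-throughput quantitative proteomics. Its fold change, on a log2 scale, is higher when more of the domain stayed soluble. This fold change is taken as a measure of aggregation propensity.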
In the case of “HMSIDNALLTLIGKTGTAQTVLRPSGKVVIGDEVYDAVTAGEFIDKGSAIVVTRVEATQLYVEASEA”, the “soluble fraction (log2)” value was -0.343. To “HMSIELEISADGNNYRVSGLSDGEDVRVYSVSGVQVFSGKAQGGEVVIPADNWNKGIYVISAGGSSVKVL” belongs -0.312; to “HMSIGLEDLIEQKGVADTDLRPSGWINVGNQRIFVVTEGSYIDQNDNVIILSVDGNRVVVRKI”, -0.941; to “HMSIGLEELVGSHGEAITDLRPAGQVSIAARRISAVSEGDFINKGDSVEVLSVEGYRVMVRKLET”, -0.4.

As for “HMSIITLFQEINAAVAEATGGRVPESVVQNFILGKDVVIPEDVKEIIISKLKAFATDIEGMLEESGFD”, the “soluble fraction (log2)” value is -2.59. On to “HMSILDEAEFKKIESALLDFITNNIFTVKELLQASRGIKQDKFWKVFQFLQSERKVVVNELGYIEL”, for which the “soluble fraction (log2)” value was -0.513. Consider “HMSILSIGLERGMKKGVAWGIAKSILDILEETGPVSEKTREMIVTETDAERLSAWVKKAARSNSEEDFLSK”, for which the “soluble fraction (log2)” value was -1.21. To “HMSILSRREHEIMQWVKGGKTNIEIAQILGISARTVRNHLQNVFRKLDVINRAQAVFEVERRR” belongs -0.639; to “HMSIMNEQIREILNQQVTKTSKIQQLLLLGLTRRQVADLVTNGNYGFVQNVYRNMLDAGIFTP”, -0.487. For “HMSIMNLSEKIVVLRKSNGMSQEELAEKLYVSRQAVSRWEMGTAVPDSTNILQLGKLFHVTTDYLLNDEYE”, the “soluble fraction (log2)” value was -0.232. “HMSINQIADKGYITRLIDNNANIKDVLYYDASSRILAIEDPKYMFYLKNTDWNQFAKEMGFKLE”: the “soluble fraction (log2)” value is -0.556. Turning to “HMSINTLEVHSLKALENLAESPLLISFSYENEEYNYRLASSDVSLLKKISSNYSDDSDIKGLRFIS”, the “soluble fraction (log2)” value is -0.316.

“HMSIQQEATGNRIRELLLNNGYTVKDIQEVMGFENPQAVYKWLSGKSLPNLDNLLILSKVLHTSIEDILV”: the “soluble fraction (log2)” value is -1.09.

For the sequence “HMSISSIDFENLKSDELSDAQITQIYRQAQEQGLSIDELSSLAIARGMSPTEVAKLRSRFNSIP”, the “soluble fraction (log2)” value came out at 0.00293.

For “HMSIVVPDLRGKTLEEARAILKEADLDFEINDSTFSKTARPGTIRDVVPSPGSRVKAGRILFISINGF”, the “soluble fraction (log2)” value is -0.0618. For the sequence “HMSIYQYFNISEINSIDDLKKQYFKLAKKYHPDAGGDKVSFQELQNEYEQLTKKILSGAELNADELKTE”, the “soluble fraction (log2)” value was -0.163. With “HMSKASLFFLFNHKDELYIVDNNHVQDVPKPRELIRRFSTIEQIREHALHLGLPIANDTARE”, the “soluble fraction (log2)” value is -0.0573. For the sequence “HMSKEGLASLLEDINGLGAIRRKTLIDHFGSVAKIRGARPEEIAALPGMGRKIAEHILASLRED”, the “soluble fraction (log2)” value stood at 0.418.

On to “HMSKEKQILQLLQHGYSQRRIADTLSVSRNTVAKVAKAAIEHPVSSDSLDSIDELELHQKLFPEEVLI”, for which the “soluble fraction (log2)” value was -0.184. The same measure for “HMSKGKNEVIAYLKAHNDHRLTVAEILDGLKEEGISINRSTIYRNLDKLVENGDILAFKGKDSESAFYQYS”: -0.643.

For the sequence “HMSKHLWNKVLPKVTTANITNLINQAIRKGEWRMDNKGVVHIIWRYRGKIIEVTGYLKDKVFNVGNAWVR”, the “soluble fraction (log2)” value is -0.134. The same measure for “HMSKITNALLMMKLLSNGKVYSVKELSEELGVTERMVRNYKEQLEMSGYIIESFKGPGGGYFINKN”: 0.207.

Consider “HMSKKAIVINLLKRPDGASLKDIMQATYWQAHSVRGFISGSLTKKMGLNVESFKRPDGERAYRIN”, for which the “soluble fraction (log2)” value came out at 0.22. On to “HMSKLIDQELINFFKNQIESKSFRYGVSIEDSYEEIKSNQIKFYGEQEDKLKAIDNAFIELKRERAGIR”, for which the “soluble fraction (log2)” value was -0.293. To “HMSKNDLAGDEADVYKLLSVETGKPISDLVNRLPFGKSKTREILNTLAEKGFVYISGSGRGTKYHR” belongs -0.403; to “HMSKNTFIGNIDDKELYVGSGRYGPFMLYDGKFTNITRYLSDESKELTDITIDDYSKIVNNARPK”, -1.5. The same measure for “HMSKNVTMPNLVGYSMRQAKAELLSRGLHLGKLIYVNDIATNNVISQLYRNAEIEPGVKIESESYVDLVVG”: -0.631.

For the sequence “HMSKPTLTDELLTLDLFEEIIKAKENAKGANKRFSLVGFLESKYIVDQEMLPKVNVKVTEYYNLTREN”, the “soluble fraction (log2)” value is -1.8.

As to “HMSKPVVWIVGDSTVSAFTDNYYYPRYGWGTQIDKYLDGTFEVKNIALSGRSSTSYTADKEYGELIAG”, the “soluble fraction (log2)” value was 0.0502.

Take “HMSKRIFPNEFQRNSPDAMVMLDKMNLSRINVDPLTKSLTLNGGGSVKTLLNGREVSAVEIAALSP”: the “soluble fraction (log2)” value was determined as 0.156. “HMSKSENLYSAARELIPGGVNSPVRAFTGVGGTPLFIEKADGAYLYDVDGKAYIDYVGSWGPMVLGHNHP”: the “soluble fraction (log2)” value was -0.279.

With “HMSKSIEEIYDEAIRSLANEEYDSAKKLFSYLIDNFSDPEKLPLSLFWLGEIEFSSSNFDQSKIHYIE”, the “soluble fraction (log2)” value was -1. In the case of “HMSKSIGEALKEERRSLGLTQEQFIKGIISESFYSKVERGKNEIVAVDLLKILAANNISEEEFLSKLN”, the “soluble fraction (log2)” value was -0.168. The same measure for “HMSKSPELMEKIKEFAEGYFRENGETPSNKTIAGAMGMGRSTVYYYLVDMAQRGMISYENGVISTEKIRKL”: -0.65; for “HMSKTDYKILYSDLNREDAKQLSLLLEDKKIPYQTSEDGKTIKIPEGMVNRFRMEVATMGVNF”: -0.014.

For “HMSKTKDVLVQLMAERGLTQSDIARALSVRPQAVQQWVSGKTRPTGKNLEALAEFLQLPPAVIVHGP”, the “soluble fraction (log2)” value turned out to be 0.344.

For the sequence “HMSKTQVKSVLDDIKGIGVVRRKALIKHFNDIEAIKAAQLAELKAVAGMDSKSAQSVYDFFHK”, the “soluble fraction (log2)” value was no less than 0.43. As to “HMSKYERVYTGSEINVNHLKSQLEDAGISSVVRNDHESAIRAGFGSDYDRGVLLFVEKDNLLRAKHIIEKT”, the “soluble fraction (log2)” value was 0.0771. The same measure for “HMSKYLAFTVKKNDELLPFIEKALNGISHTKAKAILANGGAMVNKNTITQYNYPLTPGMTVEISRH”: 0.187. Consider “HMSLDLNENEKTIFDIIQNKKTIRLSELKIEAGLSNKGWDKAMKSLTKQGLAKVVKTEDQLTVKLL”, for which the “soluble fraction (log2)” value is 0.0483. “HMSLEDNEVIQRMKVILDRFDEETAVDRTTAFKAVLDHIGKMDAESKTLEHMAEMLEALLDKVLEE”: the “soluble fraction (log2)” value was -0.371.

In the case of “HMSLGPNAYGKPATALNILRETVMGKELFDHAFKTYSKRWMFKHPSPEDFFRTMEDASAVDLDWFWR”, the “soluble fraction (log2)” value came out at 0.22. For “HMSLGSQEYSIGFRNGDSTYHYIDKALKELAYEGVIDELSTQWFGSSRAVDFPSQKDALSELGYIA”, the “soluble fraction (log2)” value turned out to be 0.22.

Regarding “HMSLGSSLFHARKKSGLTQEAVAEKLGVSRQTISKWETNETLPDIRQSKGLAMLYHMTLDELIE”, the “soluble fraction (log2)” value amounted to 0.138.

In the case of “HMSLGTDVVPDFTGKGIKEAKTEFAAYSEGELYIIGEGEKVKEQFPLPGEKVNKNSDLILYV”, the “soluble fraction (log2)” value was 0.0276. The same measure for “HMSLIDLLQLNRKSKKLTLMNLVEMTGLSYGKVYRIFNGGIDKPTPDSLKLLAKALQLDYSYLFHKAGYL”: 0.266.

Take “HMSLIEQKSQIPLVQGGQRVDKVAAALFTDFSRAELTGWIQQGALTLDGAVVKPKYKVLGGEWLYLRASQS”: the “soluble fraction (log2)” value is -0.213. The same measure for “HMSLNIIEITAKKEINELKSFNIIYFNFDKNNSIYEYKISEREKKEILEIEKIIKNSDNVTNYEIRYSF”: -0.685. “HMSLNQRIKEARIKMGYTQEQLGNLIGVAKTTISGYEKNREPDAATIGLIIDALKVDANFLFQ”: the “soluble fraction (log2)” value was -1.2. The same measure for “HMSLNSELIARIENLIASIEDKRSWGYGFAESVLGQVQAGATLSPRQLEIIAKLEKENSYSVQLERQ”: -0.479; for “HMSLPALSAEEQKIVDALHGTPKGVDDIIAETGISSGALLRSLTMLELKKVIVRLPGNRIAPK”: 0.113; for “HMSLPDREVVLETSSDSYYHFKTDHFQRQITYSAVRNAPVRLVTISAERAFEVISLNRRGERPEHLE”: -1.77. On to “HMSLQEISDLISQAERADQEQLKEVLKQLHQVESGNQPMSKGFLSSALSTLNKYPALITSIGQLLFKLAT”, for which the “soluble fraction (log2)” value was -0.723. The same measure for “HMSLSEGVSADVVADVQARLMELGYMDEDDPDGNFSESTRIAVEHFQQQAGLPVTGTVDKATLDALNSPD”: -0.231; for “HMSLSQLGLTPRQTDVLALLLKGQPNKLIARELGLSVETVKDHVAAVLRALNVSSRTQAVIAVSQMLQ”: -0.533. To “HMSLSVEESYKLLDISPSAGDEEITKKFRLLALKYHPDKNRSKIEWANNIMSRLNQAYSVIMSSRFESNAE” belongs 0.211.

“HMSLTTKSVEETLGITRQTLHNWIKEGLLPAPKKDFRNWYIWSDEDLENLRNIIEQKTLINNKKQAV”: the “soluble fraction (log2)” value is -0.0603. “HMSMANKKDFILDTAQKLFMEQGFDQTSISQILEATQIARGTLYYYFSSKEEIMDAIIERTIEQ”: the “soluble fraction (log2)” value is -1.81. To “HMSMDYYNILGVNRNASTGEIKKAYKRASMQHHPDRGGNSDEFIKVQQAYDTLSDNHKRQAYDNP” belongs 0.0506; to “HMSMDYYSTLGVSKTASASDIKKAYRKLAMANHPDKGGDSAKFAKITEAYDVLKDPQKRNNYDQFGTA”, 0.399.

Regarding “HMSMEQAKAEEIEKLGDNAPERLQAAALFAEKFFPQDVMDAVYKITETADGVRAIEHIMQTVK”, the “soluble fraction (log2)” value was -0.37. “HMSMISLPNFVGKDIETVKAWAKENGITLIINKVEDSAKKDTVISQNPTNSDYSKILKGSAFTVNIAKE”: the “soluble fraction (log2)” value came out at 0.126.

Take “HMSMRILNHTVVKILKRYRIATDEQLQPLLDEAERSGRSLQDVVLDAKLVSETELTKLFADYAD”: the “soluble fraction (log2)” value worked out at 0.421. The same measure for “HMSMVGNIEKILVTGESKKSSELLAGRTENNRVVNFTGEKVLIGSMVNVRIEEVFPNSLGGSYLPS”: 0.0322; for “HMSNAIDDAVEKVISENLDLAKERGLQSMGPLMGLVMKELGGTADGKAVSEALRRKISEISD”: 0.114; for “HMSNEDAYIKLRNGFLATLSEADLLLFTLREEGKTQKEIADQLGYKTHSAVSKRLQTMRGQFEGYLKTQ”: -0.818. As to “HMSNEIIFNQKSITRFLMNPENNSPMIYPLELGHEMKVIKKNNDWLNVTDEKTGLNGWVISDDFGLTKPEG”, the “soluble fraction (log2)” value was -0.133.

Regarding “HMSNETLFEFFEKNISQLTPTLVDNINRSLAVHSKKNVKLAIMIAAKSNVRNWNYISAILNRWEKE”, the “soluble fraction (log2)” value is -1.21. The same measure for “HMSNIAQRLVLENALAKLNQEQQTIIDLRIIKGYSVAETARLLGKTESAVRTAQYRALKELAGILEED”: -0.0342.
